Data reported in patent US6033823A, “Mutated penicillin G acylase genes” (priority 1994, dated 2000).

Assays:
Type in all cases: biochemical, Alcaligenes faecalis
[1] = substrate: CC1(C)S[C@@H]2[C@H](NC(=O)COc3ccccc3)C(=O)N2[C@H]1C(=O)O; assay: Deacylation kinetics and phenylacetic acid product inhibition, wild type PenG acylase; details: other: wild type; 40 mM NaH2PO4, pH 7.5, 37° C.; pH 7.5; 37.0 °C
Procedure: (§1) In order to determine enzymatic activity the acylases were incubated with substrate at room temperature in buffered solution. In case β-lactamase impurity was expected to be present in the enzyme preparations, 1.0 mM -lactamase inhibitor 6-bromo-penicillanic acid was added to the assay. The reactions were stopped by adding an excess PMSF. For some mutants which were less sensitive to PMSF inhibition, the reactions were stopped by adding 0.5 M HCl or 0.5 M acetic acid until the pH was between 3 and 4. When reactions were subsequently analysed by HPLC, the reactions were stopped by dilution with the correponding elution solvent (see table 1). In addition substrates were incubated under assay conditions in absence of enzyme. If necessary enzyme assays were corrected for non-enzymatic hydrolysis
(§2) The composition of the reaction mixtures was determined by high-performanceliquid chromatography (HPLC)(table 1). Concentrations were determined by using standards of known concentration.
(§3) In a continuous assay Penicillin G acylase was assayed spectro-fotometrically with the chromogenic substrate NIPAB [6-nitro-3-phenylacetamido-benzoic acid]. The liberation of 3-amino-6-nitrobenzoic acid was monitored by measuring the extinction at 405 nm in a Kontron 610 kinetic spectrofotometer. […] Initial rate measurements were performed with varying concentration of NIPAB.
(§4) The kinetics of enzymatic hydrolysis of PenG, PenV, CefG were also studied by alkaline titration (0, OlM KOH), using a Radiometer pH-stat. All experiments were carried out in a buffer free medium.
(§5) Initial rate measurements were performed with excess substrate over the enzyme. Catalytic parameters were derived from least-squares fitting of the measured initial rates plotted for various substrate concentrations according to the Michaelis-Menten equation.
(§6) The complete conversion of NIPAB was followed as a funtion of time at 20, 50 and 100 μM NIPAB by following the increase in absorbtion at 405 nm. Products of this conversion are phenylacetic acid and 3-amino-6-nitrobenzoic acid. […] The progress curves of the deacylation of NIPAB could be fitted very well when product inhibition by phenylacetic acid was taken into account. The dissociation constants (usually referred to as inhibition constant Ki) for phenylacetic acid which could be derived from the progress curves is shown in table 11. For these mutants the yield of the conversion in a fixed time span is higher than for wild type. Alternatively, in order to obtain a certain yield a shorter conversion time is needed for the mutants.

[2] = substrate: CC1(C)S[C@@H]2[C@H](NC(=O)Cc3ccccc3)C(=O)N2[C@H]1C(=O)O; assay: as above; details: other: wild type; 40 mM NaH2PO4, pH 7.5, 37° C.; pH 7.5; 37.0 °C
Procedure: as §1, §2, §3, §4, §5, §6

[3] = substrate: CC1(C)S[C@@H]2[C@H](NC(=O)[C@H](N)c3ccccc3)C(=O)N2[C@H]1C(=O)O; assay: as above; details: other: wild type; 20 mM NaH2PO4, pH 7.0, 37° C.; pH 7.0; 37.0 °C
Procedure: as §1, §2, §3, §4, §5, §6

[4] = substrate: NC(=O)[C@H](N)c1ccccc1; assay: as above; details: other: wild type; 20 mM NaH2PO4, pH 7.0, 37° C.; pH 7.0; 37.0 °C
Procedure: as §1, §2, §3, §4, §5, §6

[5] = substrate: CC1=C(C(=O)O)N2C(=O)[C@@H](NC(=O)Cc3ccccc3)[C@H]2SC1; assay: as above; details: other: wild type; 20 mM NaH2PO4, pH 7.5, 37° C.; pH 7.5; 37.0 °C
Procedure: as §1, §2, §3, §4, §5, §6

[6] = substrate: CC1(C)S[C@@H]2[C@H](NC(=O)[C@H](N)c3ccc(O)cc3)C(=O)N2[C@H]1C(=O)O; assay: as above; details: other: wild type; 20 mM NaH2PO4, pH 7.0, 37° C.; pH 7.0; 37.0 °C
Procedure: as §1, §2, §3, §4, §5, §6

[7] = substrate: O=C(Cc1ccccc1)Nc1ccc([N+](=O)[O-])c(C(=O)O)c1; assay: as above; details: other: wild type; 0.1M NaH2PO4, pH 7.5, 25° C.; pH 7.5; 25.0 °C
Procedure: as §1, §2, §3, §4, §5, §6

[8] = substrate: CC1(C)S[C@@H]2[C@H](NC(=O)COc3ccccc3)C(=O)N2[C@H]1C(=O)O; assay: Deacylation kinetics and phenylacetic acid product inhibition, mutant B:L56K; details: other: B:L56K; 40 mM NaH2PO4, pH 7.5, 37° C.; pH 7.5; 37.0 °C
Procedure: as §1, §2
as §3, with “NIPAB. […]” for “NIPAB.”
as §5, §6

[9] = substrate: CC1(C)S[C@@H]2[C@H](NC(=O)Cc3ccccc3)C(=O)N2[C@H]1C(=O)O; assay: as above; details: other: B:L56K; 40 mM NaH2PO4, pH 7.5, 37° C.; pH 7.5; 37.0 °C
Procedure: as §1, §2
as §3, with “NIPAB. […]” for “NIPAB.”
as §5, §6

[10] = substrate: CC1(C)S[C@@H]2[C@H](NC(=O)[C@H](N)c3ccccc3)C(=O)N2[C@H]1C(=O)O; assay: as above; details: other: B:L56K; 20 mM NaH2PO4, pH 7.0, 37° C.; pH 7.0; 37.0 °C
Procedure: as §1, §2
as §3, with “NIPAB. […]” for “NIPAB.”
as §5, §6

[11] = substrate: NC(=O)[C@H](N)c1ccccc1; assay: as above; details: other: B:L56K; 20 mM NaH2PO4, pH 7.0, 37° C.; pH 7.0; 37.0 °C
Procedure: as §1, §2
as §3, with “NIPAB. […]” for “NIPAB.”
as §5, §6

[12] = substrate: CC1=C(C(=O)O)N2C(=O)[C@@H](NC(=O)Cc3ccccc3)[C@H]2SC1; assay: as above; details: other: B:L56K; 20 mM NaH2PO4, pH 7.5, 37° C.; pH 7.5; 37.0 °C
Procedure: as §1, §2
as §3, with “NIPAB. […]” for “NIPAB.”
as §5, §6

[13] = substrate: O=C(Cc1ccccc1)Nc1ccc([N+](=O)[O-])c(C(=O)O)c1; assay: as above; details: other: B:L56K; 0.1M NaH2PO4, pH 7.5, 25° C.; pH 7.5; 25.0 °C
Procedure: as §1, §2
as §3, with “NIPAB. […]” for “NIPAB.”
as §5, §6

B1: Alcaligenes faecalis Penicillin G acylase, wild type (α subunit SEQ ID NO:27, β subunit SEQ ID NO:32) (Alcaligenes faecalis) (protein)
chain 1: QVQSVEVMRDSYGVPHVFADSHYGLYYGYGYAVAQDRLFQMDMARRSFVGTTAAVLGPGEQDAYVKYDMQVRQNFTPASIQRQIAALSKDERDIFRGYADGYNAYLEQVRRRPELLPKEYVDFDFQPEPLTDFDVVMIWVGSMANRFSDTNLEVTALAMRQSLEKQHGPERGRALFDELLWINDTTAPTTVPAPAAEHKPQA
chain 2: SNLWSTRPERVQEGSTVLINGPQFGWYNPAYTYGIGLHGAGFDVVGNTPFAYPIVLFGTNSEIAWGATAGPQDVVDIYQEKLNPSRADQYWFNNAWRTMEQRKERIQVRGQADREMTIWRTVHGPVMQFDYDQGAAYSKKRSWDGYEVQSLLAWLNVAKARNWTEFLDQASKMAISINWYYADKHGNIGYVSPAFLPQRPADQDIRVPAKGDGSMEWLGIKSFDAIPKAYNPPQGYLVNWNNKPAPDKTNTDTYYWTYGDRMNELVSQYQQKDLFSVQEIWEFNQKASYSDVNWRYFRPHLEKLAQQLPADDSSKAALTMLLAWDGMEQDQGGQNAGPARVLFKTWLEEMYKQVLMPVVPESHRAMYSQTGFATQQGPNPGSINLSMGTKVLLRALVLEAHPDPKRVNVFGERSSQEIMHTALQNAQARLSQEQGAQMARWTMPTSVHRFSDKNFTGTPQTMPGNTFAFTGYQNRGTENNRVVFDAKGVEFCDAMPPGQSGFTDRNGVRSPHYEDQLKLYENFECKTMDVTHADIRRNAQSSTMLLIQPQP
notes: alpha 202 aa, beta 551 aa; likely recombinant, E. coli host
**Q.** Which results are given for B1?
**A.** Km [1]: 18 µM; Vmax [1]: 4.0 U/mg; Km [2]: 2 µM; Vmax [2]: 45.5 U/mg; Km [3]: 700 µM; Vmax [3]: 23.5 U/mg; Km [4]: 8600 µM; Vmax [4]: 27.5 U/mg; Km [5]: 1 µM; Vmax [5]: 12.5 U/mg; Km [6]: 14000 µM; Vmax [6]: .9 U/mg; Km [7]: 4 µM; Vmax [7]: 37.0 U/mg

B2: Alcaligenes faecalis Penicillin G acylase mutant B:L56K (Alcaligenes faecalis; L321K) (protein)
chain 1: QVQSVEVMRDSYGVPHVFADSHYGLYYGYGYAVAQDRLFQMDMARRSFVGTTAAVLGPGEQDAYVKYDMQVRQNFTPASIQRQIAALSKDERDIFRGYADGYNAYLEQVRRRPELLPKEYVDFDFQPEPLTDFDVVMIWVGSMANRFSDTNLEVTALAMRQSLEKQHGPERGRALFDELLWINDTTAPTTVPAPAAEHKPQA
chain 2: SNLWSTRPERVQEGSTVLINGPQFGWYNPAYTYGIGLHGAGFDVVGNTPFAYPIVKFGTNSEIAWGATAGPQDVVDIYQEKLNPSRADQYWFNNAWRTMEQRKERIQVRGQADREMTIWRTVHGPVMQFDYDQGAAYSKKRSWDGYEVQSLLAWLNVAKARNWTEFLDQASKMAISINWYYADKHGNIGYVSPAFLPQRPADQDIRVPAKGDGSMEWLGIKSFDAIPKAYNPPQGYLVNWNNKPAPDKTNTDTYYWTYGDRMNELVSQYQQKDLFSVQEIWEFNQKASYSDVNWRYFRPHLEKLAQQLPADDSSKAALTMLLAWDGMEQDQGGQNAGPARVLFKTWLEEMYKQVLMPVVPESHRAMYSQTGFATQQGPNPGSINLSMGTKVLLRALVLEAHPDPKRVNVFGERSSQEIMHTALQNAQARLSQEQGAQMARWTMPTSVHRFSDKNFTGTPQTMPGNTFAFTGYQNRGTENNRVVFDAKGVEFCDAMPPGQSGFTDRNGVRSPHYEDQLKLYENFECKTMDVTHADIRRNAQSSTMLLIQPQP
notes: alpha 202 aa, beta 551 aa; recombinant, E. coli host
**Q.** What does the source list for B2?
**A.** Km [8]: 35 µM; Vmax [8]: 15.5 U/mg; Km [9]: 1 µM; Vmax [9]: 36.4 U/mg; Km [10]: 1700 µM; Vmax [10]: 20.9 U/mg; Km [11]: 49000 µM; Vmax [11]: 18.2 U/mg; Km [12]: 10 µM; Vmax [12]: 25.5 U/mg; Km [13]: 28 µM; Vmax [13]: 47.3 U/mg
